Data set [1] concerns MCR. The data set can be described thus: MCR enzyme assay from yeast cell lysates. The format is biochemical. As to conditions: NADPH as a cofactor. The protocol:
The MCR enzyme activity was measured according to the method described by Chen et al. (2014, Metab. Eng. 22:104-109) with slight modifications. The method is based on monitoring the oxidation of NAD(P)H at 340 nm.
Cells were collected and washed with cold wash buffer containing 20 mM Tris-HCl (pH 7.5), 20 mM NaN3 and then resuspended in 1 mL of breaking buffer containing 50 mM HEPES (pH 7.5), 150 mM KCl, 1 mM DTT, 1 mM EDTA, 0.5% Triton X-100 and 1×EDTA free protease inhibitor cocktail (Roche). The cells were lysed with glass beads in a Precellys 24 homogenizer at 5500 rpm for 3×40 seconds and kept on ice between rounds. Lysates were centrifuged at 16 000 g for 20 min at 4° C. and supernatants were collected. The total protein concentration was determined using the Bradford method.
The MCR assay mixture contained 50 mM Tris-HCl buffer (pH 8.0), 5 mM MgCl2 and 0.3 mM NADPH or NADH. After adding 20 μL of cell lysate into a total reaction volume of 200 μL, the reaction was pre-incubated for five minutes at 30° C. after which the reaction was started by addition of 0.15 mM malonyl-CoA. The assay was monitored at 340 nm with a Thermo Konelab 20XT analyser.
The eight full-length Chloroflexus MCR homologues were truncated into their two functional domains and the MCR-specific domains were assayed for enzyme activity in yeast along with the six archaeal MCRs. […]

Data set [2] concerns MCR. The data set can be described thus: archaeal MCR activity assay in E. coli lysates (microtitre plate). The format is biochemical. As to conditions: E. coli cell lysate, NADPH or NADH. The protocol: (§1) pBAT T7 promoter based expression constructs were made for four different archaeal MCRs, Metallosphaera sedula (MCRms), Sulfolobus tokodai (MCRst), Candidatus caldiarchaeum (MCRcc), and Sulfolobales archaeon (MCRsa1).
Their activity was analyzed using the following assay conditions: 0.4 mM NAD(P)H; 0.15 mM Malonyl-CoA; Tris-HCl pH 7; 2 mM MgCl2. Assays on 20 times diluted lysates were performed in microtitre plate (MTP) format at RT. The oxidation of NADPHT or NADHT at A^365 in time was followed. […] However, the MCR activities were smaller than that measured for the tagged MCRca.

Data set [3] is described as follows: SDS-PAGE expression levels of MCR constructs in E. coli lysate.
Text: as §1

A further data set relates to AADH. The experiment in a line: AADH in vitro enzyme activity assay from yeast cell lysates. The format is biochemical. The settings on record: in vitro, expressed in yeast. As to the method: AADH activity was measured as described by Kozak et al. (2014, Metab. Eng. 21:46-59) by monitoring the reduction of NAD^+ at 340 nm at 30° C. The yeast cells for the cell lysates were collected, washed with water, and then resuspended into lysis buffer containing 100 mM Tris-HCl buffer (pH 7.5) and 1×EDTA free protease inhibitor cocktail (Roche). The cells were lysed with glass beads in a Precellys 24 homogenizer at 5500 rpm for 3×40 seconds and kept on ice between rounds. Lysates were centrifuged at 16 000 g for 20 min at 4° C. and supernatants were collected. The total protein concentration was determined using the Bradford method.
The enzyme assay reaction mixture contained 0.1 mM Coenzyme A, 50 mM CHES buffer (pH 9.5), 0.8 mM NAD^+, 0.2 mM DTT and 10 μL of cell extract in a total reaction volume of 200 μL. The reaction was started by adding 10 mM of freshly prepared acetaldehyde solution and reduction of NAD^+ was followed with a Thermo Konelab 20XT analyser.
Five AADH genes were originally chosen (i.e. ADHEpm, ADHEec, EUTec, EUTdz and LIN1129li) and transformed into the CEN.PK lab strain. These AADHs were expressed from a multicopy plasmid where they were under control of the TEF1 promoter.
Twenty additional novel AADH genes were chosen from the genome mining analyses to be evaluated for expression and enzyme activity in yeast.

For data set [4], the system named is S. cerevisiae VSK-128 ACS2 deletion strain. The data set can be described thus: AADH in vivo growth assay, ACS2 deletion strain on glucose-based agar plates. The format is cell-based. An excerpt:
All copies of the ACS2 gene were deleted from the industrial S. cerevisiae VSK-128 strain in order to generate a strain with a defective PDH-bypass that was incapable of growth on glucose-based medium. Expression vectors carrying the 25 different AADH variants were then transformed into this ACS2 deletion strain to evaluate their ability to recover the growth of this strain on glucose.
There was a good correlation between the in vitro AADH enzyme activity assays and the in vivo growth recovery analyses.

B1: MCRsa1: archaeal malonyl-CoA reductase of Sulfolobales archaeon Acd1, WP_020198954.1 (protein)
chain: MRRTLKAAILGATGLVGIEYVRMLSQHPYIKPAYLAGKGSVGKAYSEVVRWQTVGQVPKEVADMPVLPTDVNEIKKAGVDIVFSPLPQGAAGPVEEEFAKAGFPVISNSPDHRFDPDVPLMIPEVNGHTASLIDEQKKRRDWSGFIVTTPLCTAQGIAIPLAPIYRDFRVDSVFITTMQSLSGEGYPGVASLDVVDNIKVLGDAYDAKTVKEVTRILSEVKRNVPGTMDELTLSATTHRIATIHGHYEVMYVTFKEDVKVEKVKETLANFKGEPQDMKLPTAPSRPILITELDNRPQPYFDRWAGDVPGMSVVVGRLKQVNNRTVRLVSLIHNTVRGAAGGGILVAEYLIEKGYIPK
modifications: Sulfolobales archaeon
With B1, in the data set on MCR [1], the “MCR enzyme activity compared to the wild-type strain” value is “higher than the wild-type strain”. The MCR activity result with MCR [2] is on record as “showed the highest MCR activity”. Further, in data set [3], the expression level entry is given as “highest expression levels”.

B2: MCRcc: archaeal malonyl-CoA reductase of Candidatus Caldiarchaeum subterraneum, GenBank BAJ50751.1 (protein)
chain: MKTYSVAILGATGMVGQHYIRMLYRHPWFRITALTGKESVGRKYVEAVRGEAPEPPKEIAEMEVLPTDPKKVDADFVFSCLPTEAAREAEPKFAEAGFPVFSDAAAYRMEEDVPLIVPEINHDHLNMVHIQRKKRGWEGYIVTTPNCTTVGLVLPLQPLKQHLGVKKVIVTTMQAVSGAGYPGVASLSILGNVIPYISGEERKVETETAKILGRYGDGRFTHDSVEVHATCTRVPTLDGHMESIYLETAKPADEETVAELLAEYVSLPQELNLPTAPARPIVVRRELDRPQTRIDVDAGTVPGMSVSVGRIRVNGEKVRFISLSHNLIRGAAGGTILTAELARHMGLLGE
modifications: Candidatus Caldiarchaeum
In the case of B2, the MCR activity result with MCR [2] is reported as “No activity on NADPH or NADH could be measured”. In addition, the expression level entry in data set [3] is given as “could not be expressed in a soluble form”.

B3: AADHvs: eutE type AADH of Vibrio sp. EJY3, GenBank AEX22176.1 (protein)
chain: MNEQEIAHAVENVLSKYTNVTAQNAEPVSYSSNASLENIVSQALAGNMVKQPETQTAPDLNSNIENIVSQILAENQAKPQSVQCQSANHGTTEYLGCFASMEEAISAASHAQVQYRHCTMGDRASFVKGIREVFTQDDVLEKISRMAVEETGMGNYADKLTKNRIAATKTPGIEDLTTSALSGDSGLTLTEFSAYGVIGSITPTTNPTETIINNSIGMLAAGNTVVYSPHPRSRNVSLVAVDLINRKLAELGAPANLVVTVLEPSIDNTNAMMNDPRVNMLVATGGPSIVKTVMSTGKKAIGAGAGNPPAVVDETANIEKAAKDIINGCAFDNNLPCIAEKEVIVVNEVADYLIHCMKKSGAYLLCDKQKIQQLQSLVLNEKGTGPNTSFVGKGARYILDKLNIQVSDDIKVILIETERNHPFVVHELMMPILPVVRVENVDEAIDLAIKVEHGNRHTAIMHSTNVEKLSKMARLIQTTIFVKNGPSYSGIGVGGEGHTTFTIAGPTGEGITSARSFARYRRCVMVEALNIR
modifications: AADHvs
Consider B3, for which, in the data set with AADH, the AADH activity entry is “shown to have AADH activity”. For the same molecule, the “recovery of the growth deficiency of the ACS2-deletion strain” value in data set [4] was “capable of recovering the growth deficiency”.

For the origin of these results see US10704064B2, “Recombinant yeast producing 3-hydroxypropionic acid and method for producing 3-hydroxypropionic acid using the same” (SK Innovation Co., Ltd., priority 2014, dated 2020).
